From patent US20050239704

Target: T1, SarA (Staphylococcus aureus) (UniProt Q2G2U9)
T1 sequence: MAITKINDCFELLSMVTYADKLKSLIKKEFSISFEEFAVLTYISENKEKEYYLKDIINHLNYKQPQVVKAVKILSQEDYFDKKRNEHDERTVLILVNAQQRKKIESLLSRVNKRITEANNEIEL
Assay: EMSA
Conditions: 2-5 ng radiolabeled P1 fragment; scale: fold more protein than SarR for complete shift

Substance: sarA P1 promoter fragment (nt 531-859)
- binding signal: 10
